The values that follow come from US20170313746.

Entries after “also recorded” stand apart in the source; their conditions may differ.

The target of one data set is T1, Ac-DEVD-CHO.
T1 chain: DEVD

In data set [1] the target is T2, HILR-030 (cyclo-[Pro-Arg-Gly-Pro-Arg-Pro-Val-Trp-Trp-Gpa-Gpa-Trp-Trp-Gpa-Gpa-Trp-Trp]).
T2 chain: PRGPRPVWWXXWWXXXW

B1: recombinant human caspase 3 enzyme (protein)
chain: SGISLDNSYKMDYPEMGLCIIINNKNFHKSTGMTSRSGTDVDAANLRETFRNLKYEVRNKNDLTREEIVELMRDVSKEDHSKRSSFVCVLLSHGEEGIIFGTNGPVDLKKITNFFRGDRCRSLTGKPKLFIIQACRGTELDCGIETDSGVDDDMACHKIPVEADFLYAYSTAPGYYSWRNSKDGSWFIQSLCAMLKQYADKLEFMHILTRVNRKVATEFESFSFDATFHAKKQIPCIVSMLTKELYFYH
On to B1, for which the “caspase-3 activity (Apo-ONE Homogeneous Caspase-3/7 assay, cleavage of Z-DEVD-R110)” value with Ac-DEVD-CHO is “inhibited the activity of caspase-3 in a dose-dependent manner, giving rise to IC50s within the expected range; also recorded: inhibited the caspase-3 activity in a dose-dependent fashion”; in data set [1] it was “inhibited the caspase-3 activity in a dose-dependent fashion”.
